Reference: patent publication US20110117113A1, “IMMUNOGLOBULIN SINGLE VARIABLE DOMAIN DIRECTED AGAINST HUMAN CXCR4 AND OTHER CELL ASSOCIATED PROTEINS AND METHODS TO GENERATE THEM” (priority 2009, published 2011)
Where a chain is given by its changes, count along the chain named. Values belong to the molecule of their own block, whether it stands above or below them.

Assays:
[1] = molecular target: wildtype human CXCR4 (pcDNA3.1-CXCR4, expressed in HEK293T) (human) (UniProt P61073); assay: competition with [125I]-238D2, HEK293T-CXCR4 membranes
[2] = molecular target: wildtype human CXCR4 (pcDNA3.1-CXCR4, expressed in HEK293T) (human) (UniProt P61073); assay: competition with [125I]-CXCL12, HEK293T-CXCR4 membranes
[3] = molecular target: wildtype human CXCR4 (pcDNA3.1-CXCR4, expressed in HEK293T) (human) (UniProt P61073); assay: competition with [125I]-238D4, HEK293T-CXCR4 membranes
[4] = molecular target: T1, CXCR4 mutation library clone 914 (N192K) (human, UniProt P61073 1-352); assay: immunofluorescence on HEK-293T expressing the clone, normalised to wild type
[5] = molecular target: CXCR4 mutation library clone 2184 (P191T) (human) (UniProt P61073); assay: as above
[6] = molecular target: CXCR4 mutation library clone 2396 (S178C) (human) (UniProt P61073); assay: as above
[7] = molecular target: CXCR4 mutation library clone 913 (F189S, K308R) (human) (UniProt P61073); assay: as above
[8] = molecular target: CXCR4 mutation library clone 185 (E277A, I245V, N298S) (human) (UniProt P61073); assay: as above
[9] = molecular target: CXCR4 mutation library clone 465 (F189L, S319P, V155E) (human) (UniProt P61073); assay: as above
[10] = molecular target: CXCR4 mutation library clone 2270 (V196E) (human) (UniProt P61073); assay: as above
[11] = molecular target: CXCR4 mutation library clone 709 (P163L, S178I) (human) (UniProt P61073); assay: as above
[12] = molecular target: CXCR4 mutation library clone 414 (C218R, E179V, S351T) (human) (UniProt P61073); assay: as above
[13] = molecular target: CXCR4 mutation library clone 1057 (K230E, S178R) (human) (UniProt P61073); assay: as above
[14] = molecular target: CXCR4 mutation library clone 3622 (E277G) (human) (UniProt P61073); assay: as above
[15] = molecular target: CXCR4 mutation library clone 1129 (F189V) (human) (UniProt P61073); assay: as above
[16] = molecular target: CXCR4 mutation library clone 2834 (E179V, G258E) (human) (UniProt P61073); assay: as above
[17] = molecular target: CXCR4 mutation library clone 2084 (D187V) (human) (UniProt P61073); assay: as above
[18] = molecular target: CXCR4 mutation library clone 3630 (W195R) (human) (UniProt P61073); assay: as above
[19] = molecular target: CXCR4 mutation library clone 3728 (D187A, Y157C) (human) (UniProt P61073); assay: as above
[20] = molecular target: all CXCR4 library clones containing a mutation at E277; assay: immunofluorescence, high stringency, average over all clones with a mutation at E277
[21] = molecular target: CXCR4 mutation library clone 2396 (S178C) (human, UniProt P61073 1-352); assay: immunofluorescence on HEK-293T expressing the clone, normalised to wild type
[22] = molecular target: T2, CXCR4 mutation library clone 709 (P163L, S178I) (human, UniProt P61073 1-352); assay: as above
T2 chain: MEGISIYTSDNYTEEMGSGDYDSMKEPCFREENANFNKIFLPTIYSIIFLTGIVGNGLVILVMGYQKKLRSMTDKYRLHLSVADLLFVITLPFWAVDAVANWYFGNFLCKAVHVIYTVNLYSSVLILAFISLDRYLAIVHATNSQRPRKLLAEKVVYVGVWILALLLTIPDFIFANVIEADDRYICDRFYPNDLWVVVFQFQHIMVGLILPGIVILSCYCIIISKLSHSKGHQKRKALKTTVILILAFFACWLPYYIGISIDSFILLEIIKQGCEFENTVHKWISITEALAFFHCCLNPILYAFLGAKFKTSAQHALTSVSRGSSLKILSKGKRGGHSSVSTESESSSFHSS

[23] = molecular target: T3, CXCR4 mutation library clone 1057 (K230E, S178R) (human, UniProt P61073 1-352); assay: as above
T3 chain: T2 chain with L163P, I178R, K230E

[24] = molecular target: T4, CXCR4 mutation library clone 414 (C218R, E179V, S351T) (human, UniProt P61073 1-352); assay: as above
T4 chain: T2 chain with L163P, I178S, E179V, C218R, S351T

[25] = molecular target: T5, CXCR4 mutation library clone 2834 (E179V, G258E) (human, UniProt P61073 1-352); assay: as above
T5 chain: T2 chain with L163P, I178S, E179V, G258E

[26] = molecular target: all CXCR4 library clones containing a mutation at F189; assay: immunofluorescence, average over all clones with a mutation at F189
[27] = molecular target: T1, CXCR4 mutation library clone 914 (N192K); assay: immunofluorescence, high stringency, average for residue N192 (one clone)

Sequence of wildtype human CXCR4 (pcDNA3.1-CXCR4, expressed in HEK293T) (human) (P61073 whole entry): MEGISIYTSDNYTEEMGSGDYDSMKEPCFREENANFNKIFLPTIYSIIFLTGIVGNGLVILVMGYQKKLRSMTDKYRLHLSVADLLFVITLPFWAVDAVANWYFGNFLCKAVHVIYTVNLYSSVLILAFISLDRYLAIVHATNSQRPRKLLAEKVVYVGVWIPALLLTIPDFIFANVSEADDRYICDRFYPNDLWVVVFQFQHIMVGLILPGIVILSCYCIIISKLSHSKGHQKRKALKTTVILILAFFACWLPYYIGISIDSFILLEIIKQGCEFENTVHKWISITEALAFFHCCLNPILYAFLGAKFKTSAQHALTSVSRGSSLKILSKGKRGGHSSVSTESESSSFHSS
Sequence of CXCR4 mutation library clone 3630 (W195R) (human) (P61073 whole entry W195R): as the sequence (P61073 whole entry) above, with W195R counted along it
Sequence of CXCR4 mutation library clone 414 (C218R, E179V, S351T) (human) (P61073 whole entry E179V/C218R/S351T): as the sequence (P61073 whole entry) above, with E179V, C218R, S351T counted along it
Sequence of CXCR4 mutation library clone 2084 (D187V) (human) (P61073 whole entry D187V): as the sequence (P61073 whole entry) above, with D187V counted along it
Sequence of CXCR4 mutation library clone 1129 (F189V) (human) (P61073 whole entry F189V): as the sequence (P61073 whole entry) above, with F189V counted along it
Sequence of CXCR4 mutation library clone 465 (F189L, S319P, V155E) (human) (P61073 whole entry V155E/F189L/S319P): as the sequence (P61073 whole entry) above, with V155E, F189L, S319P counted along it
Sequence of CXCR4 mutation library clone 2270 (V196E) (human) (P61073 whole entry V196E): as the sequence (P61073 whole entry) above, with V196E counted along it
Sequence of CXCR4 mutation library clone 185 (E277A, I245V, N298S) (human) (P61073 whole entry I245V/E277A/N298S): as the sequence (P61073 whole entry) above, with I245V, E277A, N298S counted along it
Sequence of CXCR4 mutation library clone 2396 (S178C) (human) (P61073 whole entry S178C): as the sequence (P61073 whole entry) above, with S178C counted along it
Sequence of CXCR4 mutation library clone 3728 (D187A, Y157C) (human) (P61073 whole entry Y157C/D187A): as the sequence (P61073 whole entry) above, with Y157C, D187A counted along it
Sequence of CXCR4 mutation library clone 2184 (P191T) (human) (P61073 whole entry P191T): as the sequence (P61073 whole entry) above, with P191T counted along it
Sequence of CXCR4 mutation library clone 1057 (K230E, S178R) (human) (P61073 whole entry S178R/K230E): as the sequence (P61073 whole entry) above, with S178R, K230E counted along it
Sequence of CXCR4 mutation library clone 2834 (E179V, G258E) (human) (P61073 whole entry E179V/G258E): as the sequence (P61073 whole entry) above, with E179V, G258E counted along it
Sequence of CXCR4 mutation library clone 913 (F189S, K308R) (human) (P61073 whole entry F189S/K308R): as the sequence (P61073 whole entry) above, with F189S, K308R counted along it
Sequence of CXCR4 mutation library clone 3622 (E277G) (human) (P61073 whole entry E277G): as the sequence (P61073 whole entry) above, with E277G counted along it

maximal displacement (%) [1]: 89% | pKi [1]: 9.65 pKi | maximal displacement (%) [2]: 54% | pKi [2]: 9.19 pKi | maximal displacement (%) [3]: 90% | pKi [3]: 9.31 pKi | % immunofluorescence [4]: 57.7% | % immunofluorescence [5]: 118% | % immunofluorescence [6]: 91.8% | % immunofluorescence [7]: 110% | % immunofluorescence [8]: 93.9% | % immunofluorescence [9]: 50.4% | % immunofluorescence [10]: 96.8% | % immunofluorescence [11]: 113% | % immunofluorescence [12]: -9.1% | % immunofluorescence [13]: 112% | % immunofluorescence [14]: 61.3% | % immunofluorescence [15]: 94.7% | % immunofluorescence [16]: 1.5% | % immunofluorescence [17]: 89.5% | % immunofluorescence [18]: 85.5% | % immunofluorescence [19]: 95.1%
Molecule: monoclonal antibody 12G5

average nanobody reactivity [20]: 27.5% | % immunofluorescence [21]: 44.9% | % immunofluorescence [4]: 8.3% | % immunofluorescence [22]: 64.1% | % immunofluorescence [23]: 54.6% | % immunofluorescence [24]: 71.1% | % immunofluorescence [25]: 84.6% | average nanobody reactivity [26]: -0.9% | average nanobody reactivity [27]: 8.3%
B1: Nanobody 238D2 (VHH)
VHH: EVQLVESGGGLVQTGGSLRLSCAASGFTFSSYAMSWVRQAPGKGLEWVSGIKSSGDSTRYAGSVKGRFTISRDNAKNMLYLQMYSLKPEDTAVYYCAKSRVSRTGLYTYDNRGQGTQVTVSS
